# Measured values from FireProtDB (doi:10.1021/bi701495v).
# B1: Calcium-binding protein wild type, O42720 (protein)
# chain: MLFSKVIAPAFILLGAASAAPGGLAPENASKRDQPSVGDAFDKYNEAVRVFTQLSSAANCDWAACLSSLSASSAACIAAVGELGLDVPLDLACAATATSSATEACKGCLW
# Settings: Ajellomyces capsulatus (strain G186AR / H82 / ATCC MYA-2454 / RMSCC 2432); pH 6.5; 25 °C; Urea; CD; KH2PO4 0.01 M; KCl 0.1 M; reversible: Yes; whole UniProt chain shown
protein,measurement,value
B1,denaturant m value,0.84 kcal/mol/M
same,denaturant midpoint (higher = more stable),3.4 M
same,unfolding free energy,2.9 kcal/mol
